# Laboratory results reported in patent publication US20020165135A1 (HESKA, published 2002).
# T1: recombinant canine IL-13 (canine, UniProt Q9N0W9 21-131, limits assumed)
# T1 sequence (looked up): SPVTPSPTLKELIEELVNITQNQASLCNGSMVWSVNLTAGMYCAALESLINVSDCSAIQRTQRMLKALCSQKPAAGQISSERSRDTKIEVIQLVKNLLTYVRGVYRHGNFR
# B1: PCaIL-13Rα2-Fc-B9563 (Fc fusion)
# chain: MSMLSNAEIKVNPPQDFEIVDPGYLGYLSLQWQPPLFPDNFKECTIEYELKYRNIDSENWKTIITKNLHYKDGFDLNKGIEAKINTLLPAQCTNGSEVRSSWAETTYWTSPQGNRETKIQDMDCVYYNWQYLVCSWKPGMGVHFDTNYQLFYWYEGLDHSAECTDYIKVNGKNMGCRFPYLESSDYKDFYICVNGSSESQPIRPSYFIFQLQNIVKPMPPDYLSLTVKNSEEINLKWNMPKGPIPAKCFIYEIEFTEDGTTWVTTTVENEIQITRTSNESQKLCFLVRSKVNIYCSDDGIWSEWSDEQCWKGDIWKETGSNTKVDKPVAKECECKCNCNNCPCPGCGLLGGPSVFIFPPKPKDILVTARTPTVTCVVVDLDPENPEVQISWFVDSKQVQTANTQPREEQSNGTYRVVSVLPIGHQDWLSGKQFKCKVNNKALPSPIEEIISKTPGQAHQPNVYVLPPSRDEMSKNTVTLTCLVKDFFPPEIDVEWQSNGQQEPESKYRMTPPQLDEDGSYFLYSKLSVDKSRWQRGDTFICAVMHEALHNHYTQISLSHSPGK
# Molecular target: T1, recombinant canine IL-13
# Assay: cell-based or functional assay
binder,measurement,value
B1,Percent inhibition of IL-13 stimulated TF-1 cell proliferation; IL-13 at 10 ng/ml; fusion protein 6.6 ug/ml; refolding condition 1A,30.9%
same,Percent inhibition of IL-13 stimulated TF-1 cell proliferation; IL-13 at 10 ng/ml; fusion protein 6.6 ug/ml; refolding condition 1B,43.7%
same,Percent inhibition of IL-13 stimulated TF-1 cell proliferation; IL-13 at 10 ng/ml; fusion protein 6.6 ug/ml; refolding condition 1C,100%
same,Percent inhibition of IL-13 stimulated TF-1 cell proliferation; IL-13 at 10 ng/ml; fusion protein 6.6 ug/ml; refolding condition 1D,99.8%
same,Percent inhibition of IL-13 stimulated TF-1 cell proliferation; IL-13 at 10 ng/ml; fusion protein 6.6 ug/ml; refolding condition 2A,35.1%
same,Percent inhibition of IL-13 stimulated TF-1 cell proliferation; IL-13 at 10 ng/ml; fusion protein 6.6 ug/ml; refolding condition 2B,18%
same,Percent inhibition of IL-13 stimulated TF-1 cell proliferation; IL-13 at 10 ng/ml; fusion protein 6.6 ug/ml; refolding condition 2C,16%
same,Percent inhibition of IL-13 stimulated TF-1 cell proliferation; IL-13 at 10 ng/ml; fusion protein 6.6 ug/ml; refolding condition 2D,7.5%
same,Percent inhibition of IL-13 stimulated TF-1 cell proliferation; IL-13 at 10 ng/ml; fusion protein 6.6 ug/ml; refolding condition 3A,81.3%
same,Percent inhibition of IL-13 stimulated TF-1 cell proliferation; IL-13 at 10 ng/ml; fusion protein 6.6 ug/ml; refolding condition 3B,96.3%
same,Percent inhibition of IL-13 stimulated TF-1 cell proliferation; IL-13 at 10 ng/ml; fusion protein 6.6 ug/ml; refolding condition 3C,98.9%
same,Percent inhibition of IL-13 stimulated TF-1 cell proliferation; IL-13 at 10 ng/ml; fusion protein 6.6 ug/ml; refolding condition 3D,49.9%
same,Percent inhibition of IL-13 stimulated TF-1 cell proliferation; IL-13 at 50 ng/ml; fusion protein 6.6 ug/ml; refolding condition 1A,29.4%
same,Percent inhibition of IL-13 stimulated TF-1 cell proliferation; IL-13 at 50 ng/ml; fusion protein 6.6 ug/ml; refolding condition 1B,34.6%
same,Percent inhibition of IL-13 stimulated TF-1 cell proliferation; IL-13 at 50 ng/ml; fusion protein 6.6 ug/ml; refolding condition 1C,92.3%
same,Percent inhibition of IL-13 stimulated TF-1 cell proliferation; IL-13 at 50 ng/ml; fusion protein 6.6 ug/ml; refolding condition 1D,31.7%
same,Percent inhibition of IL-13 stimulated TF-1 cell proliferation; IL-13 at 50 ng/ml; fusion protein 6.6 ug/ml; refolding condition 2A,19.7%
same,Percent inhibition of IL-13 stimulated TF-1 cell proliferation; IL-13 at 50 ng/ml; fusion protein 6.6 ug/ml; refolding condition 2B,24%
same,Percent inhibition of IL-13 stimulated TF-1 cell proliferation; IL-13 at 50 ng/ml; fusion protein 6.6 ug/ml; refolding condition 2C,11.9%
same,Percent inhibition of IL-13 stimulated TF-1 cell proliferation; IL-13 at 50 ng/ml; fusion protein 6.6 ug/ml; refolding condition 2D,28.8%
same,Percent inhibition of IL-13 stimulated TF-1 cell proliferation; IL-13 at 50 ng/ml; fusion protein 6.6 ug/ml; refolding condition 3A,44.7%
same,Percent inhibition of IL-13 stimulated TF-1 cell proliferation; IL-13 at 50 ng/ml; fusion protein 6.6 ug/ml; refolding condition 3B,92.5%
same,Percent inhibition of IL-13 stimulated TF-1 cell proliferation; IL-13 at 50 ng/ml; fusion protein 6.6 ug/ml; refolding condition 3C,95.4%
same,Percent inhibition of IL-13 stimulated TF-1 cell proliferation; IL-13 at 50 ng/ml; fusion protein 6.6 ug/ml; refolding condition 3D,32.7%
